T1: TNFR1 (Homo sapiens, UniProt P19438)
T1 chain: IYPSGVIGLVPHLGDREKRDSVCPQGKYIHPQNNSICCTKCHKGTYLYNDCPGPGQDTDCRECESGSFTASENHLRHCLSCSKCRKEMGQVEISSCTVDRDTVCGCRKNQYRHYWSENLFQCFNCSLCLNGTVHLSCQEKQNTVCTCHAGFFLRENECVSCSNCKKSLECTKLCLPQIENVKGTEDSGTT


Target: T1, TNFR1
Test: yeast display SC50

Binder	apparent Kd (screen) [pM]
L12V (designed binder) MTLQELLREEAVRRAEAEAFRYALELLAEKFPEQKEYLLDLAEEIESQIRSLSGVDVEDVRKFLDKEWAWVKELLAEHPAELAEVEAARAARLAELRAEVEAKVAA	539
K62E (designed binder) MTLQELLREEALRRAEAEAFRYALELLAEKFPEQKEYLLDLAEEIESQIRSLSGVDVEDVREFLDKEWAWVKELLAEHPAELAEVEAARAARLAELRAEVEAKVAA	790
A69W (designed binder) MTLQELLREEALRRAEAEAFRYALELLAEKFPEQKEYLLDLAEEIESQIRSLSGVDVEDVRKFLDKEWWWVKELLAEHPAELAEVEAARAARLAELRAEVEAKVAA	539
V71R (designed binder) MTLQELLREEALRRAEAEAFRYALELLAEKFPEQKEYLLDLAEEIESQIRSLSGVDVEDVRKFLDKEWAWRKELLAEHPAELAEVEAARAARLAELRAEVEAKVAA	24400
E67M (designed binder) MTLQELLREEALRRAEAEAFRYALELLAEKFPEQKEYLLDLAEEIESQIRSLSGVDVEDVRKFLDKMWAWVKELLAEHPAELAEVEAARAARLAELRAEVEAKVAA	1270
R89I (designed binder) MTLQELLREEALRRAEAEAFRYALELLAEKFPEQKEYLLDLAEEIESQIRSLSGVDVEDVRKFLDKEWAWVKELLAEHPAELAEVEAAIAARLAELRAEVEAKVAA	653
R61W (designed binder) MTLQELLREEALRRAEAEAFRYALELLAEKFPEQKEYLLDLAEEIESQIRSLSGVDVEDVWKFLDKEWAWVKELLAEHPAELAEVEAARAARLAELRAEVEAKVAA	3630
E43K (designed binder) MTLQELLREEALRRAEAEAFRYALELLAEKFPEQKEYLLDLAKEIESQIRSLSGVDVEDVRKFLDKEWAWVKELLAEHPAELAEVEAARAARLAELRAEVEAKVAA	790
A102T (designed binder) MTLQELLREEALRRAEAEAFRYALELLAEKFPEQKEYLLDLAEEIESQIRSLSGVDVEDVRKFLDKEWAWVKELLAEHPAELAEVEAARAARLAELRAEVETKVAA	790
A106M (designed binder) MTLQELLREEALRRAEAEAFRYALELLAEKFPEQKEYLLDLAEEIESQIRSLSGVDVEDVRKFLDKEWAWVKELLAEHPAELAEVEAARAARLAELRAEVEAKVAM	718
E99C (designed binder) MTLQELLREEALRRAEAEAFRYALELLAEKFPEQKEYLLDLAEEIESQIRSLSGVDVEDVRKFLDKEWAWVKELLAEHPAELAEVEAARAARLAELRACVEAKVAA	653
R61V (designed binder) MTLQELLREEALRRAEAEAFRYALELLAEKFPEQKEYLLDLAEEIESQIRSLSGVDVEDVVKFLDKEWAWVKELLAEHPAELAEVEAARAARLAELRAEVEAKVAA	593
E95K (designed binder) MTLQELLREEALRRAEAEAFRYALELLAEKFPEQKEYLLDLAEEIESQIRSLSGVDVEDVRKFLDKEWAWVKELLAEHPAELAEVEAARAARLAKLRAEVEAKVAA	539
I45H (designed binder) MTLQELLREEALRRAEAEAFRYALELLAEKFPEQKEYLLDLAEEHESQIRSLSGVDVEDVRKFLDKEWAWVKELLAEHPAELAEVEAARAARLAELRAEVEAKVAA	956
E16I (designed binder) MTLQELLREEALRRAIAEAFRYALELLAEKFPEQKEYLLDLAEEIESQIRSLSGVDVEDVRKFLDKEWAWVKELLAEHPAELAEVEAARAARLAELRAEVEAKVAA	539
A76N (designed binder) MTLQELLREEALRRAEAEAFRYALELLAEKFPEQKEYLLDLAEEIESQIRSLSGVDVEDVRKFLDKEWAWVKELLNEHPAELAEVEAARAARLAELRAEVEAKVAA	490
A90L (designed binder) MTLQELLREEALRRAEAEAFRYALELLAEKFPEQKEYLLDLAEEIESQIRSLSGVDVEDVRKFLDKEWAWVKELLAEHPAELAEVEAARLARLAELRAEVEAKVAA	653
W68D (designed binder) MTLQELLREEALRRAEAEAFRYALELLAEKFPEQKEYLLDLAEEIESQIRSLSGVDVEDVRKFLDKEDAWVKELLAEHPAELAEVEAARAARLAELRAEVEAKVAA	12500

Second part, the binder after the results:

apparent Kd (screen) [pM]	Binder
490	R92F (designed binder) MTLQELLREEALRRAEAEAFRYALELLAEKFPEQKEYLLDLAEEIESQIRSLSGVDVEDVRKFLDKEWAWVKELLAEHPAELAEVEAARAAFLAELRAEVEAKVAA
1050	S51C (designed binder) MTLQELLREEALRRAEAEAFRYALELLAEKFPEQKEYLLDLAEEIESQIRCLSGVDVEDVRKFLDKEWAWVKELLAEHPAELAEVEAARAARLAELRAEVEAKVAA
405	D65I (designed binder) MTLQELLREEALRRAEAEAFRYALELLAEKFPEQKEYLLDLAEEIESQIRSLSGVDVEDVRKFLIKEWAWVKELLAEHPAELAEVEAARAARLAELRAEVEAKVAA
24400	Y37A (designed binder) MTLQELLREEALRRAEAEAFRYALELLAEKFPEQKEALLDLAEEIESQIRSLSGVDVEDVRKFLDKEWAWVKELLAEHPAELAEVEAARAARLAELRAEVEAKVAA
490	E58K (designed binder) MTLQELLREEALRRAEAEAFRYALELLAEKFPEQKEYLLDLAEEIESQIRSLSGVDVKDVRKFLDKEWAWVKELLAEHPAELAEVEAARAARLAELRAEVEAKVAA
1860	L38N (designed binder) MTLQELLREEALRRAEAEAFRYALELLAEKFPEQKEYNLDLAEEIESQIRSLSGVDVEDVRKFLDKEWAWVKELLAEHPAELAEVEAARAARLAELRAEVEAKVAA
653	L75R (designed binder) MTLQELLREEALRRAEAEAFRYALELLAEKFPEQKEYLLDLAEEIESQIRSLSGVDVEDVRKFLDKEWAWVKELRAEHPAELAEVEAARAARLAELRAEVEAKVAA
13800	V85R (designed binder) MTLQELLREEALRRAEAEAFRYALELLAEKFPEQKEYLLDLAEEIESQIRSLSGVDVEDVRKFLDKEWAWVKELLAEHPAELAEREAARAARLAELRAEVEAKVAA
490	E101D (designed binder) MTLQELLREEALRRAEAEAFRYALELLAEKFPEQKEYLLDLAEEIESQIRSLSGVDVEDVRKFLDKEWAWVKELLAEHPAELAEVEAARAARLAELRAEVDAKVAA
12500	E67F (designed binder) MTLQELLREEALRRAEAEAFRYALELLAEKFPEQKEYLLDLAEEIESQIRSLSGVDVEDVRKFLDKFWAWVKELLAEHPAELAEVEAARAARLAELRAEVEAKVAA
490	E36D (designed binder) MTLQELLREEALRRAEAEAFRYALELLAEKFPEQKDYLLDLAEEIESQIRSLSGVDVEDVRKFLDKEWAWVKELLAEHPAELAEVEAARAARLAELRAEVEAKVAA
490	E84V (designed binder) MTLQELLREEALRRAEAEAFRYALELLAEKFPEQKEYLLDLAEEIESQIRSLSGVDVEDVRKFLDKEWAWVKELLAEHPAELAVVEAARAARLAELRAEVEAKVAA
718	V104I (designed binder) MTLQELLREEALRRAEAEAFRYALELLAEKFPEQKEYLLDLAEEIESQIRSLSGVDVEDVRKFLDKEWAWVKELLAEHPAELAEVEAARAARLAELRAEVEAKIAA
1860	L24D (designed binder) MTLQELLREEALRRAEAEAFRYADELLAEKFPEQKEYLLDLAEEIESQIRSLSGVDVEDVRKFLDKEWAWVKELLAEHPAELAEVEAARAARLAELRAEVEAKVAA
718	V100Q (designed binder) MTLQELLREEALRRAEAEAFRYALELLAEKFPEQKEYLLDLAEEIESQIRSLSGVDVEDVRKFLDKEWAWVKELLAEHPAELAEVEAARAARLAELRAEQEAKVAA
11400	L52R (designed binder) MTLQELLREEALRRAEAEAFRYALELLAEKFPEQKEYLLDLAEEIESQIRSRSGVDVEDVRKFLDKEWAWVKELLAEHPAELAEVEAARAARLAELRAEVEAKVAA
8560	L39D (designed binder) MTLQELLREEALRRAEAEAFRYALELLAEKFPEQKEYLDDLAEEIESQIRSLSGVDVEDVRKFLDKEWAWVKELLAEHPAELAEVEAARAARLAELRAEVEAKVAA
